The source of these data is US20190160181A1.

Usually Kd stands for the free concentration of one partner at which half of the binding sites on the other are occupied at equilibrium, for simple one-to-one binding.

The target in the assay is Human cyclized NaPi2b peptide (human). In words: ELISA on plate-coated human cyclized NaPi2b peptide, one site-specific binding fit.

B1: XMT-1535 (antibody, V domains shown)
VH: QVQLVQSGAEVVKPGASVKMSCKASGYTFTGYNIHWVKQAPGQGLEWIGAIYPGNGDTSYKQKFRGRATLTADTSTSTVYMELSSLRSEDSAVYYCARGETARATFAYWGQGTLVTVSS
VL: DIQMTQSPSSLSASVGDRVTITCSASQDIGNFLNWYQQKPGKTVKVLIYYTSSLYSGVPSRFSGSGSGTDYTLTISSLQPEDFATYYCQQYSKLPLTFGQGTKLELKR
B1: the Kd came out at 0.536 nM.
